Test results: US20090253622A1, “USE OF TLR3 AGONISTS FOR THE TREATMENT OF NEURODEGENERATIVE DISORDERS” (Nederlandse Organisatie voor toegepast - …, priority 2006, published 2009)
Entries after “also recorded” stand apart in the source; their conditions may differ.

Key:
[1] = Circular dichroism spectroscopy, helical content; assay type: physicochemical; details: dissolved in 50% TFE in PBS, without dialysis
Description: Purified recombinant stathmin was exposed to two different conditions that differentially affect the extent of helix formation within the protein chain. One part of the protein preparation was exposed to 5% trifluoroacetic acid (TFA) in water for 1 h at 37° C., strongly acidic conditions that tend to disrupt an alpha helix. […] […] Next, the samples were analyzed by […] circular dichroism spectroscopy that allows calculation of helical content on the basis of elipticity in the absorption of circularly polarized light. In both cases, another part of the dialyzed sample was tested in parallel for induction of TLR3-mediated release of CXCL8 (IL-8) in human astrocytes as described elsewhere in this application.

[2] = tested on: pre-dendritic cells (pre-DC); assay: CXCL8 accumulation in culture of human pre-dendritic cells; assay type: cell-based; details: 24 h, varying doses, two donors
Text: (§1) Peripheral blood mononuclear cells (PBMC) were isolated from two healthy blood donors and from part of the cells, CD14^+ monocytes were isolated by positive selection using magnetic beads coated with an antibody against CD14. The purified CD14^+ monocytes were subsequently cultured for 5 days in the presence of IL-4 and granulocyte-macrophage colony stimulating factor (GM-CSF). These growth factors induce differentiation of monocytes into pre-dendritic cells (pre-DC) within this time frame. At this stage part of the pre-DC culture was stimulated with a mixture of IL-1β and TNF-α for another 2 days in culture, thus stimulating final maturation of the cells into plasmacytoid dendritic cells (DC).
(§2) Using this differentiation method, separate populations of PBMC, pre-DC and DC were generated and after washing of the cells to remove all previously used stimuli, cells were subsequently re-cultured in fresh medium and tested for their response to either poly I:C, stathmin or LPS. Accumulation of CXCL8 in the culture medium over a 24-h period was used as a measure for cellular activation.

TLR3 [3] = assay: CXCL8 release by cultured human astrocytes (ELISA); assay type: cell-based
Description: Cos-7 cells (25,000 cells per well in 96-well plates) were transfected for 5 h with 768 pools of cDNA derived from human brain tumours (5 pooled tumours including meningioma, oligodendroglioma, astrocytoma grades II and IV, and medulloblastoma; NCI CGAP Brn35; Invitrogen) using lipofectamine, after which cells were thoroughly washed. Transfection with green-fluorescent protein-encoding cDNA was used as an internal control for transfection efficiencies. After continued culture of the transfected cells for 48 h, 75 μL of each culture supernatant was harvested and added to cultured human astrocytes seeded at 1,000 cells per well in 75 μL. After 48 h of culture, supernatants were harvested and evaluated for CXCL8 release using ELISA. Stimulation of astrocytes with poly I:C served as positive controls for CXCL8 release in all cases, non-transfected Cos 7 culture supernatants as negative controls.
Purified recombinant stathmin was exposed to two different conditions that differentially affect the extent of helix formation within the protein chain. One part of the protein preparation was exposed to 5% trifluoroacetic acid (TFA) in water for 1 h at 37° C., strongly acidic conditions that tend to disrupt an alpha helix. In parallel, another part was exposed for 1 h at 37° C. to 5% of the helix-promoting solvent trifluoroethanol (TFE) in phosphate-buffered saline (PBS). After exposure to these different conditions, both protein samples were extensively dialysed for 48 h against several changes of PBS. Next, the samples were analyzed by […] circular dichroism spectroscopy that allows calculation of helical content on the basis of elipticity in the absorption of circularly polarized light. In both cases, another part of the dialyzed sample was tested in parallel for induction of TLR3-mediated release of CXCL8 (IL-8) in human astrocytes as described elsewhere in this application.

TLR3 [4] = assay: IL-6 release by astrocytes from wild-type mice (ELISA); assay type: cell-based; details: wild-type mouse astrocytes, 48 h
Description: Astrocytes were cultured in poly L-lysine coated 96 well-flat-bottom plates at 1×10^4 cells per well in 100 l DMEM/HAM-F10 medium containing 10% FCS and antibiotic supplements for 24 h to obtain post-confluent cultures. Recombinant human stathmin was next added to astrocytes, and parallel control stimuli were performed with either poly I:C, an established TLR3 agonist, or ultrapure lipopolysaccharides, established TLR4 agonists. After addition of these stimuli astrocytes were incubated for another 48 h. Astrocyte culture supernatants were subsequently collected and using a commercial ELISA kit levels of IL-6 were determined, as a marker for TLR-mediated activation of murine astrocytes.

human microglia = assay: CXCL8 accumulation in cultures of human microglia (ELISA); assay type: cell-based; details: microglia from gray or white matter, 24 h
Description: Using either gray matter samples or white matter samples of post mortem adult human brains collected within 9 h after death, several cultures of microglia were produced as previously described. Microglia were subsequently stimulated with different TLR agonists and after 24 h accumulation of CXCL8 in the culture medium was quantified using a commercial ELISA assay, as a measure of TLR-mediated activation.

[5] = tested on: plasmacytoid dendritic cells (DC); assay: CXCL8 accumulation in culture of human mature plasmacytoid dendritic cells; assay type: cell-based; details: 24 h, varying doses, two donors
Text: as §1, §2

TLR4 = target: T1, TLR4 (Homo sapiens, UniProt O00206+Q9Y6Y9); assay: HEK293 transfectant cells, TLR4 activation; assay type: cell-based; details: at levels of at least 50 μg/mL
T1 construct: expressed in transfected cells; host or cells: HEK293
T1 sequence (O00206 24-839, species assumed): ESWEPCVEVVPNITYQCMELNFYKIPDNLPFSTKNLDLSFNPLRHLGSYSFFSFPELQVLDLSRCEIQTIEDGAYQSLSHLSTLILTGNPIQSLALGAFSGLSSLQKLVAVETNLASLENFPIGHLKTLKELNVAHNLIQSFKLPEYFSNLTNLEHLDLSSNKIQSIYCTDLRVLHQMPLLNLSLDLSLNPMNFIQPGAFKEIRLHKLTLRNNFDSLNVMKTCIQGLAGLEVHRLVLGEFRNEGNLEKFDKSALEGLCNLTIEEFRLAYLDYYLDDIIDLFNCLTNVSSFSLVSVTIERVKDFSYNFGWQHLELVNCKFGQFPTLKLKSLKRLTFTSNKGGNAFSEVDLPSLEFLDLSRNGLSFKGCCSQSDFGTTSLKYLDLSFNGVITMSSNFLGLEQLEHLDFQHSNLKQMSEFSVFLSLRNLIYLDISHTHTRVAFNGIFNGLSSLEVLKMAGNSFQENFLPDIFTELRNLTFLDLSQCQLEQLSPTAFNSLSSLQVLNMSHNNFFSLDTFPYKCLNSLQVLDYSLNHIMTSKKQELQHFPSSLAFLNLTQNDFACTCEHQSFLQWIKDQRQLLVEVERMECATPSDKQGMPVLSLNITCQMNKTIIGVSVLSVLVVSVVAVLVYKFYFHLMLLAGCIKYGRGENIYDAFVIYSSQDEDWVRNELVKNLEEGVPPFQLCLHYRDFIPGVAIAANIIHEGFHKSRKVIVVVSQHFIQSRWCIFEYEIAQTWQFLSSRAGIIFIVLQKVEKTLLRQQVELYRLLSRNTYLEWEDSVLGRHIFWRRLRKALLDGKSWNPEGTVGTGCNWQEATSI
T1 sequence (Q9Y6Y9 17-160 limits assumed, species assumed): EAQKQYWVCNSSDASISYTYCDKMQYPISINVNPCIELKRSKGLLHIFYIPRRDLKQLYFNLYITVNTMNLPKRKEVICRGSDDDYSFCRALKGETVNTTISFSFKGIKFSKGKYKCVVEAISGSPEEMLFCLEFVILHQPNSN
Description: (§3) Additional control experiments using murine astrocytes or transfected HEK293 cells were performed essentially as described previously by several other research groups.

[6] = purified recombinant protein in buffers similar to culture media; Steinmetz and colleagues; cited from earlier work
TLR2 = target: T2, TLR2 (Homo sapiens, UniProt O60603); assay: HEK293 transfectant cells, TLR2 activation; assay type: cell-based; details: at levels of at least 50 μg/mL
T2 construct: expressed in transfected cells; host or cells: HEK293
T2 sequence (O60603 21-784, species assumed): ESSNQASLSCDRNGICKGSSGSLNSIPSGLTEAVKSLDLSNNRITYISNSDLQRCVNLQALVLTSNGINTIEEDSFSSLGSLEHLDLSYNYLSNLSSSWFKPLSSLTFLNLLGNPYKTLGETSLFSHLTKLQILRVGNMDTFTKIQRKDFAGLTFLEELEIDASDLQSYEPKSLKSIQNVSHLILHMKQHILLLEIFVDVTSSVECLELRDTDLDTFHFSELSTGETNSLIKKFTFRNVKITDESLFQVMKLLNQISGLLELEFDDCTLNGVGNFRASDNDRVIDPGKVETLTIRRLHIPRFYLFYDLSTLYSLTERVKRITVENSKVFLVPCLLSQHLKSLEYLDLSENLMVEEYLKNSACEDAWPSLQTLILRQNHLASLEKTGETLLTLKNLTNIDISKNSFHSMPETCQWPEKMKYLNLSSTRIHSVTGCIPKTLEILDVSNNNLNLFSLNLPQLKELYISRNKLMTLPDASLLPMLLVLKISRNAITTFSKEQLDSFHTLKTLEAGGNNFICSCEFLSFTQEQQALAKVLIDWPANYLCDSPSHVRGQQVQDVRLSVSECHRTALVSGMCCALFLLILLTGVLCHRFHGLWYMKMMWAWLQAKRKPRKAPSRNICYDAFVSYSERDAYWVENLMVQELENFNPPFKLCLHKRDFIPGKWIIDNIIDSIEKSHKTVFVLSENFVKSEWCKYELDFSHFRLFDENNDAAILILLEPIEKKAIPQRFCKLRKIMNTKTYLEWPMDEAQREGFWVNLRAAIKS
Description: as §3

B1: stathmin: cytosolic phosphoprotein of 149 amino acids (SEQ ID NO: 1); purified recombinant human stathmin from a commercial source (protein)
chain: MASSDIQVKELEKRASGQAFELILSPRSKESVPEFPLSPPKKKDFSLEEIQKKLEAAEERRKSHEAEVLKQLAEKREHEKEVLQKAIEENNNFSKMAEEKITHKMEANKENREAQMAAKLERLREKDKHIEEVRKNKESKDPADETEAD
modifications: Human; (44)..(138) Stathmin-like alpha helix domain
notes: purified recombinant human stathmin from a commercial source
- helical content [1]: 98%
- CXCL8 accumulation in the culture medium [2]: substantial increase in CXCL8 accumulation
- astrocyte CXCL8 response, dose dependence (TLR3 [3]; at 100 μg/mL): still not maximal
- CXCL8 release by cultured human astrocytes (in words) (TLR3 [3]; doses between 5 and 100 μg/mL, four donors): marked CXCL8 release
- stathmin-induced response under TLR3-directed small interfering RNA (TLR3 [3]; human astrocytes, three TLR3 siRNAs): largely—in one case completely—inhibited
- IL-6 release (TLR3 [4]): dose-dependent IL-6 induction; also recorded: marked IL-6 release
- CXCL8 accumulation in the culture medium (human microglia): enhanced CXCL8 accumulation
- CXCL8 accumulation in the culture medium [5]: substantial increase in CXCL8 accumulation
- response of HEK293 transfectant cells via TLR4 (TLR4): does not contain any endotoxin contaminants that trigger responses
- fraction structurally ordered into alpha helix [6]: 40-60%
- response of HEK293 transfectant cells via TLR2 (TLR2): does not contain any endotoxin contaminants that trigger responses
